In one experiment the target is T1, HLA-A*03:01 (human).
T1 construct: Peptide-receptive MHC class I monomer in the UV-ligand exchange assay
Put plainly: UV peptide exchange, anti-b2m ELISA; exchange yield grade. The source says: (§1) Candidate peptides for T cell based therapies according to the present invention were further tested for their MHC binding capacity (affinity). The individual peptide-MHC complexes were produced by UV-ligand exchange, where a UV-sensitive peptide is cleaved upon UV-irradiation and exchanged with the peptide of interest as analyzed. Only peptide candidates that can effectively bind and stabilize the peptide-receptive MHC molecules prevent dissociation of the MHC complexes. To determine the yield of the exchange reaction, an ELISA was performed based on the detection of the light chain (β2m) of stabilized MHC complexes. The assay was performed as generally described in Rodenko et al. (Rodenko et al., 2006).
(§2) 96 well MAXISorp plates (NUNC) were coated over night with 2 μg/ml streptavidin in PBS at room temperature, washed 4× and blocked for 1 h at 37° C. in 2% BSA containing blocking buffer. […] Peptide-MHC monomers of the UV-exchange reaction were diluted 100-fold in blocking buffer. Samples were incubated for 1 h at 37° C., washed four times, incubated with 2 μg/ml HRP conjugated anti-β2m for 1 h at 37° C., washed again and detected with TMB solution that is stopped with […]. Absorption was measured at 450 nm.

The target in a further experiment is T2, HLA-B*07:02 (human).
T2 construct: Peptide-receptive monomer in the UV-ligand exchange assay
The description is as above.
Description: as §1, §2

This passage reports peptide exchange yield results from patent US20240358755A1 (IMMATICS BIOTECHNOLOGIES, published 2024).

B1: ILAPPAILK (peptide)
peptide: ILAPPAILK
B1 gave a peptide exchange yield with HLA-A*03:01 of no less than 75%.

B2: MVNWSLTNK (peptide)
peptide: MVNWSLTNK
B2 showed a peptide exchange yield in the experiment with HLA-A*03:01 of no less than 75%.

B3: SLIPIVPFKS (peptide)
peptide: SLIPIVPFKS
The molecule B3 registered a peptide exchange yield with HLA-A*03:01 of 20 to 50%.

B4: VVRASSGLK (peptide)
peptide: VVRASSGLK
For B4, in the experiment with HLA-A*03:01, the peptide exchange yield lay in the range of 50 to 75%.

B5: AVVSHFILY (peptide)
peptide: AVVSHFILY
In the experiment with HLA-A*03:01, B5 registered a peptide exchange yield of 50 to 75%.

B6: AILVPQPPK (peptide)
peptide: AILVPQPPK
As to B6, the peptide exchange yield with HLA-A*03:01 is 50 to 75%.

B7: GTFIAPVMK (peptide)
peptide: GTFIAPVMK
Molecule B7 displayed a peptide exchange yield in the experiment with HLA-A*03:01 of no less than 75%.

B8: RLCPAAPTGK (peptide)
peptide: RLCPAAPTGK
In the case of B8, in the experiment with HLA-A*03:01, the peptide exchange yield is no less than 75%.

B9: RILEVVRQPK (peptide)
peptide: RILEVVRQPK
B9: the peptide exchange yield with HLA-A*03:01 was no less than 75%.

B10: LALLGAPPPK (peptide)
peptide: LALLGAPPPK
B10 registered a peptide exchange yield with HLA-A*03:01 of 20 to 50%.

B11: TVTSAIVNR (peptide)
peptide: TVTSAIVNR
On to B11, for which the peptide exchange yield in the experiment with HLA-A*03:01 fell in the range of 50 to 75%.

B12: LLFKGLMWK (peptide)
peptide: LLFKGLMWK
For B12, in the experiment with HLA-A*03:01, the peptide exchange yield is no less than 75%.

B13: GSLQTLPPK (peptide)
peptide: GSLQTLPPK
On to B13, for which, in the experiment with HLA-A*03:01, the peptide exchange yield lay in the range of 50 to 75%.

B14: SLFPYFLNK (peptide)
peptide: SLFPYFLNK
B14: the peptide exchange yield with HLA-A*03:01 was no less than 75%.

B15: TLLSFKTVLFK (peptide)
peptide: TLLSFKTVLFK
As for B15, the peptide exchange yield with HLA-A*03:01 was no less than 75%.

B16: VIFLHQPPK (peptide)
peptide: VIFLHQPPK
As to B16, in the experiment with HLA-A*03:01, the peptide exchange yield was no less than 75%.

B17: RTLPLEGSPK (peptide)
peptide: RTLPLEGSPK
B17 had a peptide exchange yield with HLA-A*03:01 of 50 to 75%.

B18: RLYSGSSFLY (peptide)
peptide: RLYSGSSFLY
For the molecule B18, the peptide exchange yield with HLA-A*03:01 is no less than 75%.

B19: SVFSLVHLFDK (peptide)
peptide: SVFSLVHLFDK
Take B19: the peptide exchange yield in the experiment with HLA-A*03:01 is no less than 75%.

B20: LIAGLIFLK (peptide)
peptide: LIAGLIFLK
Molecule B20 registered a peptide exchange yield in the experiment with HLA-A*03:01 of 50 to 75%.

B21: ASAIPAGAK (peptide)
peptide: ASAIPAGAK
The molecule B21 came in with a peptide exchange yield with HLA-A*03:01 of 50 to 75%.

B22: SVISVLTTPK (peptide)
peptide: SVISVLTTPK
B22: in the experiment with HLA-A*03:01, the peptide exchange yield is no less than 75%.

B23: ATNSFLLIK (peptide)
peptide: ATNSFLLIK
In the case of B23, the peptide exchange yield in the experiment with HLA-A*03:01 is no less than 75%.

B24: ETYGTFVLR (peptide)
peptide: ETYGTFVLR
As to B24, the peptide exchange yield in the experiment with HLA-A*03:01 fell in the range of 50 to 75%.

B25: SVYMATTLK (peptide)
peptide: SVYMATTLK
The molecule B25 yielded a peptide exchange yield with HLA-A*03:01 of no less than 75%.

B26: ILAASFQAR (peptide)
peptide: ILAASFQAR
With B26, the peptide exchange yield with HLA-A*03:01 lay within 50 to 75%.

B27: MLSAQFILK (peptide)
peptide: MLSAQFILK
Take B27: the peptide exchange yield with HLA-A*03:01 was no less than 75%.

B28: LIYIPTNSIYK (peptide)
peptide: LIYIPTNSIYK
With B28, in the experiment with HLA-A*03:01, the peptide exchange yield is no less than 75%.

B29: MTYQQPFSNR (peptide)
peptide: MTYQQPFSNR
Consider B29, for which the peptide exchange yield in the experiment with HLA-A*03:01 was no less than 75%.

B30: KLIAGLIFLK (peptide)
peptide: KLIAGLIFLK
In turn, B30 registered a peptide exchange yield with HLA-A*03:01 of 50 to 75%.

B31: RIVTYIVAK (peptide)
peptide: RIVTYIVAK
The molecule B31 showed a peptide exchange yield with HLA-A*03:01 of 50 to 75%.

B32: GTVFVLLSK (peptide)
peptide: GTVFVLLSK
B32 yielded a peptide exchange yield in the experiment with HLA-A*03:01 of 20 to 50%.

B33: GVCSTLTIK (peptide)
peptide: GVCSTLTIK
For the molecule B33, the peptide exchange yield with HLA-A*03:01 was no less than 75%.

B34: AILLPQLPK (peptide)
peptide: AILLPQLPK
B34 had a peptide exchange yield with HLA-A*03:01 of no less than 75%.

B35: IIVPSFYK (peptide)
peptide: IIVPSFYK
Turning to B35, the peptide exchange yield in the experiment with HLA-A*03:01 fell in the range of 50 to 75%.

B36: IVFLLQQGEK (peptide)
peptide: IVFLLQQGEK
Turning to B36, in the experiment with HLA-A*03:01, the peptide exchange yield fell in the range of 50 to 75%.

B37: VIYNQTLMK (peptide)
peptide: VIYNQTLMK
Consider B37, for which the peptide exchange yield with HLA-A*03:01 was no less than 75%.

B38: STQSSLLYLK (peptide)
peptide: STQSSLLYLK
Molecule B38 yielded a peptide exchange yield in the experiment with HLA-A*03:01 of 50 to 75%.

B39: LSGPVTFLR (peptide)
peptide: LSGPVTFLR
On to B39, for which the peptide exchange yield with HLA-A*03:01 fell in the range of 50 to 75%.

B40: SLATAISAK (peptide)
peptide: SLATAISAK
In the case of B40, the peptide exchange yield with HLA-A*03:01 was 50 to 75%.

B41: ALAQGANLK (peptide)
peptide: ALAQGANLK
B41 yielded a peptide exchange yield with HLA-A*03:01 of 50 to 75%.

B42: KIMEILNLK (peptide)
peptide: KIMEILNLK
For B42, in the experiment with HLA-A*03:01, the peptide exchange yield was no less than 75%.

B43: RVIEVVMNSK (peptide)
peptide: RVIEVVMNSK
In the experiment with HLA-A*03:01, B43 registered a peptide exchange yield of no less than 75%.

B44: GSCSFALSR (peptide)
peptide: GSCSFALSR
For the molecule B44, the peptide exchange yield with HLA-A*03:01 was no less than 75%.

B45: TTAAVYILK (peptide)
peptide: TTAAVYILK
For B45, the peptide exchange yield with HLA-A*03:01 lay within 50 to 75%.

B46: SPVETRSLL (peptide)
peptide: SPVETRSLL
Turning to B46, the peptide exchange yield with HLA-B*07:02 was in the range of 50 to 75%.

B47: KVGAVVHLK (peptide)
peptide: KVGAVVHLK
In the experiment with HLA-A*03:01, B47 showed a peptide exchange yield of 50 to 75%.

B48: ATLQAVTLYKK (peptide)
peptide: ATLQAVTLYKK
Molecule B48 registered a peptide exchange yield in the experiment with HLA-A*03:01 of no less than 75%.

B49: SMNSKALRWK (peptide)
peptide: SMNSKALRWK
With B49, the peptide exchange yield in the experiment with HLA-A*03:01 lay in the range of 50 to 75%.

B50: AILAPPAILK (peptide)
peptide: AILAPPAILK
B50 came in with a peptide exchange yield in the experiment with HLA-A*03:01 of no less than 75%.

B51: AVLGALLRH (peptide)
peptide: AVLGALLRH
B51: in the experiment with HLA-A*03:01, the peptide exchange yield was no less than 75%.

B52: KVLVDFLLK (peptide)
peptide: KVLVDFLLK
B52 showed a peptide exchange yield with HLA-A*03:01 of 50 to 75%.

B53: ILQLITVNR (peptide)
peptide: ILQLITVNR
Take B53: in the experiment with HLA-A*03:01, the peptide exchange yield was in the range of 50 to 75%.

B54: KLLLLSSVK (peptide)
peptide: KLLLLSSVK
B54: the peptide exchange yield with HLA-A*03:01 was 50 to 75%.

B55: TTLENLPQK (peptide)
peptide: TTLENLPQK
For the molecule B55, in the experiment with HLA-A*03:01, the peptide exchange yield is 50 to 75%.

B56: SLFGGLFTR (peptide)
peptide: SLFGGLFTR
Molecule B56 displayed a peptide exchange yield with HLA-A*03:01 of no less than 75%.

B57: MIFSGVFLR (peptide)
peptide: MIFSGVFLR
In the case of B57, in the experiment with HLA-A*03:01, the peptide exchange yield is no less than 75%.

B58: AVFVNWEQTKK (peptide)
peptide: AVFVNWEQTKK
For B58, in the experiment with HLA-A*03:01, the peptide exchange yield is no less than 75%.

B59: AVFLGNPSNQK (peptide)
peptide: AVFLGNPSNQK
In turn, B59 registered a peptide exchange yield with HLA-A*03:01 of no less than 75%.

B60: KTIDLVIVR (peptide)
peptide: KTIDLVIVR
With B60, the peptide exchange yield in the experiment with HLA-A*03:01 was no less than 75%.

B61: MTFVPLLAR (peptide)
peptide: MTFVPLLAR
In the experiment with HLA-A*03:01, B61 came in with a peptide exchange yield of no less than 75%.

B62: TVATQVATSK (peptide)
peptide: TVATQVATSK
As to B62, the peptide exchange yield with HLA-A*03:01 was in the range of 50 to 75%.
